We go through 16 sequences from the nanobody polyreactivity screen of Harvey et al. (2022).

The nature of the data set: yeast display, Sf9 membrane polyspecificity reagent, FACS + sequencing; frameworks hold sequencing errors. The method in brief: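 A synthetic nanobody library was expressed on Saccharomyces cerevisiae BJ5465 by galactose induction for 36–48 hours. The library was stained for 1 hour at 4 °C with 10% biotinylated, detergent-solubilized Sf9 membrane reagent and enriched with streptavidin microbeads before FACS. Low and high (top ~1%) gates were set on anti-HA fluorescence for expression and streptavidin fluorescence for reagent binding, and each polyreactivity label reflects the gate of origin.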
In the case of “QVQLVESGGGLVQAGGSLRLSCAACGNTFTYYAMGLYRQAPGKERELVASISSGVSTNYADSVKGRFTISRDNAKNTLYLHINSLKPEDTAVYYCARGWSFSTRRFQHTRYYYWGQGTQVTVSS”, the “polyreactivity (PSR sort gate)” value is recorded as “high polyreactivity”.

Turning to “QVQLVESGGGLVQAGGSLRLSCAACGRIFTPNAMGWYRPAPGKERELVAAITWSGDNTYADSVKGRFTISRDNAKNTVYLQMNSLKPEDTAVYYCAAAYGYGHKNYGYWRQGTQVTVSS”, the “polyreactivity (PSR sort gate)” value is listed as “low polyreactivity”.

On to “QVQLVESGGGLVQAGGSLRLSCAACGRIFVYYVMGWYRQAPGKERELVAAISNSGTSTYYADSLKGRFTISRDNAKNTVYLQMNSLKPEDTAVYYCNTVGQRWLSDDDYWGQGTQVTVSS”, for which the “polyreactivity (PSR sort gate)” value is “low polyreactivity”.

Regarding “QVQLVESGGGLVQAGGSLRLSCAACGRTFQSNAMGWYRQAPGKERELVARITRRGGITYYADSVKGRFTISRDNAKNTVYLQMNSLKPEDTAVYYCNRYLYDSYRWAALQRTGYNSWGQGTQVTVSS”, the “polyreactivity (PSR sort gate)” value is given as “high polyreactivity”.

For “QVQLVESGGGLVQAGGSLRLSCAACGRTFRRNAMGWYREAPGKERELVAAISTSGGRTYYADSVKGRFTISRDNAKNTVYLQMNSLKPEDTAVYYCAADIPQTDGYWGQGTQVTVSS”, the “polyreactivity (PSR sort gate)” value is “low polyreactivity”.

Consider “QVQLVESGGGLVQAGGSLRLSCAACGRTFVDYVMGSYRQAPGKERELVAAISRSGSTYYADSVKGRFTISRDNAKNTVYLQRNSLKPEDTAVYYCAASSVALPWYASWYVYGYEYCGQGTQVTVSS”, for which the “polyreactivity (PSR sort gate)” value was “low polyreactivity”.

In the case of “QVQLVESGGGLVQAGGSLRLSCAACGRTFVSYSMGWYRQAPGKERELVAAISRSGGRTYYADSVKGRFTISRDNAKNTVYLQMNSLKPEDTAVYYCATIQYGTLARYDYWGQGTQVTVSS”, the “polyreactivity (PSR sort gate)” value is listed as “high polyreactivity”.

Regarding “QVQLVESGGGLVQAGGSLRLSCAACGRTFYFYTMGWYRQAPGKERELVAAITRSGVSTYYADSVKGRFTISRDNAKNTVYLQMNSLKPEDTAVYYCAVRTWGYTQYYYWGQGTQVTVSS”, the “polyreactivity (PSR sort gate)” value is on record as “high polyreactivity”.

In the case of “QVQLVESGGGLVQAGGSLRLSCAACGRTLRTYGMGWYRQAPGKERELVATITRRGDSTYYADSVKGRFTISRDNAKNTVYLQMNSLKPEDTAVYYSNTASYGRHQFRKSSKMDYWGQGTQVTVSS”, the “polyreactivity (PSR sort gate)” value is listed as “high polyreactivity”.

For “QVQLVESGGGLVQAGGSLRLSCAACGSIFDRYVMGWYRQAPGKERELVAAISSSGGSTYYADSVKGRFTISRDNAKNTVYLQMNSLKPEDTAVYYCAAKFSYGRYNYWGQGTQVTVSS”, the “polyreactivity (PSR sort gate)” value is reported as “high polyreactivity”.

Take “QVQLVESGGGLVQAGGSLRLSCAACGSIFEFNTMGWYRQAPGKERELVAAISSSGGRTYYADSVKGRFTISRDNAKNSVYLQMNSLKPEDTGVYYCNARRLVHNPDYDYWGQGTQVTVSS”: the “polyreactivity (PSR sort gate)” value is “high polyreactivity”.

“QVQLVESGGGLVQAGGSLRLSCAACGSIFNYYTMGWYRTAPGKERELVADISWSGGSTYYADSVKGRFTISRDNAKNTVYLQMNSLKPEETAVYYCAADFGLFPYVGTGYYYWGQGTQVTVSS”: the “polyreactivity (PSR sort gate)” value was “low polyreactivity”.

In the case of “QVQLVESGGGLVQAGGSLRLSCAACGSIFVRNTMGWDRQAPGKERELVASIDWSGGITSYADSVKGRFTISRDNAKNTVYLQMNIRKPEDTAVYFCNAVFLYPFNVPTMEYWGQGTQVTVSS”, the “polyreactivity (PSR sort gate)” value is listed as “low polyreactivity”.

On to “QVQLVESGGGLVQAGGSLRLSCAACGSIFYGNAMGWDRQAPGKVRELVAAITQGATSTYYADSVKGRFTISRDNAKNTVDLQMNSLKPEDTAVYYCAAVLAWRYTYYYWGQGTQVTVSS”, for which the “polyreactivity (PSR sort gate)” value was “high polyreactivity”.

On to “QVQLVESGGGLVQAGGSLRLSCAACGSIVRDYAMGWYRQAPGKERELVAAIRQSGGRTYYADSVKGRFTISRDNAKNTVYLQMNSLKPDDTAVYYCIARRANYWKKASTQYYYWGQGTQVTVSS”, for which the “polyreactivity (PSR sort gate)” value is “high polyreactivity”.

Take “QVQLVESGGGLVQAGGSLRLSCAACGSTFFPYAMGWYRQAPGKERELVAAITSGGRTKYADSVKGRFTISRDNAKNTVYLQMNSLKPEDTAVYYCAARGLIKEYGGPYRRFGYWGQGTQVTVSS”: the “polyreactivity (PSR sort gate)” value is “high polyreactivity”.
